# Measured values published in the supplement of paper PMC10126150.
# ± gives the standard deviation of the averaged measurements.
# System: ATP
# Test: switch fluorescence ratio, 500 uM ATP over buffer (Cy3 cluster intensity, sum of 5 cycles each) (fold (ratio)); higher = stronger signal-on switching upon ATP binding; sequences stand for … in TCGTCGGCAGCGTCAGATGTGTATAAGAGACAGTTTTTTTTTTTTTTTTTTTTTTTTT…TC
# Settings: aptamer strand: ATP DNA aptamer (quencher-CACCTGGGGGAGTATTGCGGAGGAAGG + anchor), 100 nM annealed; ATP concentration: 500 uM
# Procedure, shortened: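 The fluorescence ratio divides summed target-cycle Cy3 intensity by summed buffer-cycle Cy3 intensity for each cluster and is averaged per switch-domain sequence. Cy3-labelled switching-strand clusters on a modified Illumina MiSeq flow-cell were annealed to 100 nM quencher-labelled ATP aptamer, then imaged in selection buffer and again after 15 min with 500 uM ATP at 22 °C. Five such cycles were run, with NaOH stripping and re-annealing between them, and clusters outside 100-1000 RFU were excluded.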
# 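Note: ATP exposure 15 min at 22 °C before imaging.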
row,Sequence,switch fluorescence ratio
1,GATAACCTTT,1.073 ± 0.0078
2,AAAGTAGGCT,1.01 ± 0.053
3,ATTACTGGGG,0.99 ± 0.019
4,AAAAGCAGGG,1 ± 0.014
5,CCCCGACTTT,1.07 ± 0.018
6,ACCATTATTT,1.03 ± 0.014
7,TTGTTTTGGT,0.966 ± 0.016
8,GGGTAACGGT,0.9802 ± 0.0045
9,AAAGTCTAGC,1.01 ± 0.019
10,GGGATTCGGG,1.02 ± 0.022
11,TCGATAGTTG,0.961 ± 0.054
12,TGGGGACGAC,1.02 ± 0.063
13,TATCAATTTT,1 ± 0.03
14,TTCGGGGCGG,0.934 ± 0.071
15,ACTAAAGGGC,1.07 ± 0.034
16,ATATGGGGGC,0.972 ± 0.059
17,ATCTATATAG,0.9945 ± 0.0068
18,TCGTAATGAG,1.019 ± 0.0034
19,TGGGTGAGAT,1.01 ± 0.032
20,AAGAGTATCT,1.01 ± 0.013
21,GGAGCTGGGA,1.0097 ± 0.00033
22,TGATTAGGGT,1.05 ± 0.076
23,GAAGTAGCAG,0.984 ± 0.025
24,TTTACAAATT,1 ± 0.02
25,ACAGCTGCTT,0.981 ± 0.028

row,Sequence,switch fluorescence ratio
1,CCAGAATTAA,0.976 ± 0.011
2,CGTATTTGGA,0.985 ± 0.046
3,ATAAGTCCGA,0.99 ± 0.026
4,TGTAGTACTT,1.02 ± 0.016
5,TAATTGACCG,1.091 ± 0.0088
6,AGGCGGGGTG,1.04 ± 0.024
7,CGGTGGCCGT,1.02 ± 0.019
8,AGTTGTTTAG,1.01 ± 0.012
9,CTGGCTGGCA,0.995 ± 0.01
10,CGTACAAGTC,0.963 ± 0.058
11,CGACCATTAA,1.264 ± 0.0043
12,ACTATTGGTG,1.12 ± 0.035
13,CCGAGGGGGG,1.25 ± 0.35
14,TTCTGGTGCA,1.02 ± 0.047
15,CAGGGGGCCG,1.01 ± 0.078
16,TTTATTACGC,0.999 ± 0.053
17,TAGCTGACTG,1.02 ± 0.04
18,AGAATTTATT,1.01 ± 0.039
19,GGAGGGATGG,1.13 ± 0.2
20,TGGGTCAGTG,1 ± 0.021
21,CGGGTTGCAG,0.97 ± 0.019
22,GGCATTATAT,0.9984 ± 0.0058
23,ATTCATTTTT,1.004 ± 0.01
24,TTCTCGGGGA,0.9908 ± 0.0097
25,CAAAGTTAAC,0.949 ± 0.0098

row,Sequence,switch fluorescence ratio
1,CCTCTGGGAT,2.24 ± 1.7
2,TGTTACGTTT,0.992 ± 0.021
3,GGTGATGGTT,0.986 ± 0.047
4,CGTATAGAGA,0.998 ± 0.039
5,GGGTTGGCTG,0.989 ± 0.048
6,CGCGCGGTTT,1.02 ± 0.041
7,AGGAATCGTT,0.9969 ± 0.0072
8,ACGGGGGGGT,1.09 ± 0.081
9,TGTGGGAGGT,0.9573 ± 0.0065
10,ATATTACTAG,0.989 ± 0.035
11,GTAGGGTGCT,1.042 ± 0.0064
12,AGTGTTCGGG,1 ± 0.043
13,GGTTCTGTGG,1.03 ± 0.0094
14,GATGAGAGGT,0.999 ± 0.015
15,GAGGTGTGTT,0.996 ± 0.02
16,ATTAAAGCGT,1 ± 0.016
17,CCTTTGGTTT,0.982 ± 0.013
18,GAGGATGGGT,0.933 ± 0.024
19,TAAGACAAAG,0.992 ± 0.053
20,AGGAAGTTGG,0.97916 ± 0.00082
21,GATATCAGGA,0.989 ± 0.027
22,TGTTGTGTTT,0.989 ± 0.033
23,TTATAGTTGG,0.98 ± 0.023
24,CCACGAGATA,1.115 ± 0.0033
25,AGGGGTTTCG,0.994 ± 0.025

row,Sequence,switch fluorescence ratio
1,TTTTTCCGCG,1.128 ± 0.0084
2,TTTGGATGCT,1.05 ± 0.14
3,ACTCGGGA,1.13 ± 0.16
4,TAGTTTTCGT,0.9817 ± 0.0012
5,GGGGAACGGT,1.03 ± 0.012
6,ATGCGTACTT,1.01 ± 0.02
7,AGCTGTAGTA,1.01 ± 0.011
8,TTTTATAATA,1.05 ± 0.034
9,AGGGGAAGAG,0.994 ± 0.07
10,TCTTAAAGCA,1.02 ± 0.06
11,TTCAATTGGA,1 ± 0.042
12,TTTTGATAGA,1 ± 0.058
13,TTTGGGTAGT,1.04 ± 0.034
14,AGTCTTAGGG,0.972 ± 0.023
15,AGTTTGTTGT,1.06 ± 0.095
16,TGCCGGGTGG,1 ± 0.063
17,TTGCGTAGCA,0.977 ± 0.02
18,CGTAGACTGC,1.06 ± 0.024
19,CGAGGAAAGG,0.9865 ± 0.0089
20,TTCAGTTGCA,1.01 ± 0.024
21,TCGTGATTGG,1.007 ± 0.0097
22,GAGGGGGTCA,1.02 ± 0.029
23,GAATATAATG,0.978 ± 0.032
24,CGGATATGGC,1.03 ± 0.1
25,GCGTAAATTG,0.9923 ± 0.0053

row,Sequence,switch fluorescence ratio
1,CGCGGCAAGG,1.32 ± 0.31
2,TTTAGGAGGA,0.997 ± 0.025
3,GTATGTCGTT,0.968 ± 0.034
4,CAATGAAATC,1.02 ± 0.027
5,CTAATGGAGC,0.98 ± 0.017
6,TTTCGGTTCT,0.991 ± 0.012
7,GCTGGAGGAC,0.996 ± 0.032
8,GATTATTGCT,0.988 ± 0.037
9,GTTTTTTGGC,0.97 ± 0.058
10,GCCGACGGTG,1 ± 0.019
11,ATAGCCGTGC,1.017 ± 0.0054
12,GGGCCCTTAC,1.11 ± 0.06
13,TGAGGTCAAA,1.07 ± 0.041
14,TCTTTTGGGA,1.16 ± 0.29
15,CGGGGGGCCT,1.01 ± 0.028
16,AAATGAAGGG,1 ± 0.058
17,GAATTTGTTT,0.984 ± 0.035
18,TTTCGAAGGG,1.04 ± 0.07
19,TCAACGGGGG,1.08 ± 0.17
20,ATATTTCACT,1.03 ± 0.012
21,TGCCATTGTT,0.942 ± 0.01
22,TGGGTAAAGA,0.981 ± 0.049
23,AGGGAGGTGG,1.02 ± 0.026
24,GCGTCACGTC,1.05 ± 0.054
25,AGTCCAATGT,0.993 ± 0.021

row,Sequence,switch fluorescence ratio
1,TGCCCCTGGC,0.978 ± 0.042
2,TTCCACATCC,1.07 ± 0.044
3,GGACAAACTC,1.04 ± 0.036
4,TGGATCATTT,0.999 ± 0.022
5,TGGCTTACAT,1.0268 ± 0.00039
6,AGCTTTAGGG,0.9905 ± 0.0022
7,TTGTATAGTG,0.933 ± 0.033
8,AATTATGGTG,1.01 ± 0.012
9,TGGCGCCGGG,0.9958 ± 0.0091
10,TCGTACGAAG,1 ± 0.032
11,TTATTCATTT,1.001 ± 0.01
12,ATGGTTATCT,1.01 ± 0.034
13,GGGAGGGGAG,0.981 ± 0.019
14,ATTGGCTTTA,1.004 ± 0.0034
15,TTGCATGAGG,1.01 ± 0.078
16,GGGTCTAAGG,1.007 ± 0.0045
17,ATCCTTCTAA,1.05 ± 0.018
18,ACCAGTTATT,1.08 ± 0.14
19,TTTTCGAAGC,2.08 ± 1.5
20,TCCAAATTAC,2.08 ± 0.064
21,GAGGAGCGGT,1 ± 0.017
22,AAAGCGGTTA,1.007 ± 0.006
23,CACGCATGTT,1.09 ± 0.015
24,TTGATAGGTC,1.01 ± 0.04
25,CATGAGAAGA,0.999 ± 0.029

row,Sequence,switch fluorescence ratio
1,GGGAAATAGT,0.9877 ± 0.0057
2,ACCGGGGTGG,0.991 ± 0.05
3,AAGGGTGCTA,0.9787 ± 0.0016
4,GAGGCAAAG,2.87 ± 2.4
5,AAAAAAAAGG,1 ± 0.05
6,GTGATGCTTG,0.998 ± 0.037
7,GCAAAGAGGG,1.04 ± 0.012
8,GCCGTAATTA,1.09 ± 0.017
9,TAAAATAGTT,0.972 ± 0.026
10,ATATAAATGT,1.019 ± 0.0066
11,GGGGGTCGAC,0.996 ± 0.043
12,ATGAAAAAAA,0.976 ± 0.12
13,TCTCTTTAAT,0.997 ± 0.021
14,AATGTTTTAC,0.97 ± 0.035
15,GAAAACGAAT,1.07 ± 0.14
16,GGATTTAGAA,0.975 ± 0.032
17,CAAAAGTCGA,1.04 ± 0.031
18,GAGTAAGTTT,1.012 ± 0.0081
19,GTGTCCTGTA,0.998 ± 0.072
20,TTTCTCGTAA,1.58 ± 0.55
21,CGAAGTCGGG,0.955 ± 0.015
22,GTGGAGGGGA,1.01 ± 0.043
23,GGTAGTGGGG,0.987 ± 0.021
24,TAGGATCCC,0.981 ± 0.026
25,TTTTTTCAAG,0.978 ± 0.019

row,Sequence,switch fluorescence ratio
1,GGATTGGGGT,0.986 ± 0.04
2,CTTACAGGTT,0.99 ± 0.036
3,CCGAAGGACT,1.02 ± 0.072
4,GTTTTTGGCG,0.94 ± 0.16
5,TATATGGATT,0.999 ± 0.015
6,GGTTTCGGGT,0.984 ± 0.0011
7,TTAATTCATT,1.01 ± 0.016
8,CAGTAGAAAG,1.01 ± 0.0081
9,TTCCCATTTA,1.04 ± 0.02
10,TCATATACGA,1.09 ± 0.015
11,GAGTGAAGGA,1.03 ± 0.065
12,GGGGGACTAT,1.03 ± 0.023
13,ATAAGGCTAA,0.982 ± 0.016
14,TTGGTCGCCC,1.08 ± 0.17
15,GGTAGGGGTG,1.07 ± 0.033
16,ATCGAATTTT,1 ± 0.061
17,TACGAATGAG,0.9854 ± 0.0057
18,GAATGTATGG,1.04 ± 0.049
19,TGGGGTAAAA,0.99 ± 0.0091
20,TAGTGAGGGT,1.01 ± 0.021
21,ATTTGGAAGA,1.01 ± 0.0048
22,TAAGTATTGT,1.012 ± 0.0084
23,TGAAGAAGGT,1.03 ± 0.015
24,TTGCCGCAGC,1.49 ± 0.054
25,GGTCGGGCTG,0.9942 ± 0.0047
